81 sequences from the Immune Epitope Database (IEDB) can be followed below.

pIC50, pKd: −log10 of the molar value.

Test [1] addresses HLA-B*40:01. Briefly: IEDB peptide-MHC binding, purified MHC/direct/fluorescence; filed as Kd, often an IC50 or EC50 that approximates it; ≥ and ≤ were set here for values at or beyond the usual limits of such assays.
For test [2], the target named is HLA-B*44:02. Briefly: IEDB peptide-MHC binding, purified MHC/competitive/radioactivity; filed as Kd, often an IC50 or EC50 that approximates it; ≥ and ≤ were set here for values at or beyond the usual limits of such assays. As to conditions: source organism: Dengue virus 4 Philippines/H241/1956.
The target of test [3] is HLA-A*32:01. The description is as above.
Test [4] deals with HLA-A*02:01. Briefly: IEDB peptide-MHC binding, purified MHC/competitive/fluorescence; filed as Kd, often an IC50 or EC50 that approximates it; ≥ and ≤ were set here for values at or beyond the usual limits of such assays.
For test [5], the target named is HLA-A*02:01. The experiment in a line: IEDB peptide-MHC binding, purified MHC/competitive/fluorescence; ≥ and ≤ were set here for values at or beyond the usual limits of such assays.
Test [6] deals with HLA-A*11:01. Briefly: IEDB peptide-MHC binding, purified MHC/competitive/radioactivity; filed as Kd, often an IC50 or EC50 that approximates it; ≥ and ≤ were set here for values at or beyond the usual limits of such assays.
Test [7] addresses HLA-A*01:01. The description is as above.
Test [8] addresses HLA-A*03:01. Described as above. As to conditions: source organism: Dengue virus 3 Martinique/1243/1999.
Test [9] deals with HLA-A*24:02. The description is as above.
Test [10] addresses HLA-A*23:01. Described as above.
For test [11], the target named is HLA-A*26:01. Described as above.
For test [12], the target named is HLA-A*26:01. The experiment in a line: IEDB peptide-MHC binding, purified MHC/direct/fluorescence; filed as Kd, often an IC50 or EC50 that approximates it; ≥ and ≤ were set here for values at or beyond the usual limits of such assays.
Test [13] concerns the target HLA-B*27:05. The test is described as above. As to conditions: source organism: Homo sapiens.
Test [14] deals with HLA-A*11:01. The test is described as above. As to conditions: source organism: Homo sapiens.
Test [15] deals with HLA-A*03:01. Described as above.
Test [16] addresses HLA-A*02:01. The description is as above.
The target of test [17] is HLA-A*69:01. Described as above.
In test [18] the target is HLA-B*58:01. The test is described as above.
Test [19] concerns the target HLA-A*30:02. Briefly: IEDB peptide-MHC binding, purified MHC/competitive/radioactivity; filed as Kd, often an IC50 or EC50 that approximates it; ≥ and ≤ were set here for values at or beyond the usual limits of such assays.
Test [20] addresses HLA-B*15:01. The experiment in a line: IEDB peptide-MHC binding, purified MHC/direct/fluorescence; filed as Kd, often an IC50 or EC50 that approximates it; ≥ and ≤ were set here for values at or beyond the usual limits of such assays.
Test [21] concerns the target HLA-B*07:02. Described as above.
Test [22] addresses HLA-A*01:01. The description is as above.
The target of test [23] is HLA-A*68:01. The experiment in a line: IEDB peptide-MHC binding, purified MHC/competitive/radioactivity; filed as Kd, often an IC50 or EC50 that approximates it; ≥ and ≤ were set here for values at or beyond the usual limits of such assays. As to conditions: source organism: Dengue virus 1 Brazil/97-11/1997.
Test [24] concerns the target HLA-A*31:01. Described as above. As to conditions: source organism: Dengue virus 1 Brazil/97-11/1997.
Test [25] has as its target HLA-A*33:01. The test is described as above. As to conditions: source organism: Dengue virus 1 Brazil/97-11/1997.
For test [26], the target named is HLA-A*31:01. The experiment in a line: IEDB peptide-MHC binding, purified MHC/direct/fluorescence; filed as Kd, often an IC50 or EC50 that approximates it; ≥ and ≤ were set here for values at or beyond the usual limits of such assays. As to conditions: source organism: Vibrio cholerae.
The mark [27] stands for this setting: source organism: Vaccinia virus WR.
Setting [28] is: source organism: Vaccinia virus Copenhagen.
[29] abbreviates: source organism: Mycobacterium tuberculosis.
The mark [30] stands for this setting: source organism: Dengue virus 3 Martinique/1243/1999.
Where [31] appears, read: source organism: Zaire ebolavirus.
The mark [32] stands for this setting: source organism: Dengue virus 2 Jamaica/1409/1983.
Where [33] appears, read: source organism: Dengue virus 1 Brazil/97-11/1997.
Where [34] appears, read: source organism: Marburg virus - Musoke, Kenya, 1980.
The mark [35] stands for this setting: source organism: Sudan ebolavirus.
[36] abbreviates: source organism: Dengue virus 4 Philippines/H241/1956.
Setting [37] is: source organism: Dengue virus 3 Singapore/8120/1995.
Setting [38] is: source organism: Dengue virus 4 Dominica/814669/1981.
[39] abbreviates: source organism: Yersinia pestis.
Where [40] appears, read: source organism: West Nile virus.
[41] abbreviates: source organism: West Nile virus NY-99.
[42] abbreviates: source organism: Burkholderia mallei.

What is called pKd is the negative decadic logarithm of the Kd, by convention in mol/L. In [1] (source organism: Influenza A virus (A/Moscow/343/2003(H3N2))), AEDMGNGCF had a pKd of 6.78.
As to AETWMSSEG, the pKd in test [2] was 6.37.
For the sequence AIMFFPRTI, the pKd in [3] (setting [27]) was 8.95.
For the sequence ALFGIKLPAL, the pKd in test [4] (setting [28]) was 9.52.
Broadly, the pIC50 is the negative decadic logarithm of the IC50, by convention in mol/L. Lower therefore signals a high IC50. ALVREGLRNV had a pIC50 in test [5] (setting [29]) of 6.89.
AMFTAALNI: the pKd in [3] (setting [27]) is 6.91.
With ASISSVLTI, the pKd in test [3] (setting [27]) is 7.88.
As to CTNTFVLKK, the pKd in test [6] (setting [30]) is 7.11; in test [7] (setting [30]), 5.29; in [8], 8.01.
For DDQEKKILM, the pIC50 in test [5] (setting [31]) was at most 2.76.
Turning to DFAGKTVWF, the pKd was 5.52 in [9] (setting [30]) and 5.19 in test [10] (setting [30]).
In test [4] (source organism: Homo sapiens), DLKPQNILL gave a pKd of 5.70.
In test [5] (setting [31]), DVDKLVCRD had a pIC50 of 4.28.
With DVFCDSKLM, in [11] (setting [32]), the pKd is 5.73.
In the case of EPILEYVVY, the pKd in test [12] (source organism: Francisella tularensis subsp. tularensis FSC033) is 6.08.
For the sequence ERLQICQRK, the pKd in [13] was 5.77; in test [14] it was 5.03; in test [15] (source organism: Homo sapiens), 4.98.
Consider ETAEAMHAS, for which, in test [12] (setting [29]), the pKd was 7.15.
Consider EVTAKWLWGF, for which the pKd in test [11] (setting [33]) is 7.09.
Consider FAGKTVWFVP, for which the pKd in [3] (setting [30]) was at most 4.58.
In the case of FLYDRIAST, the pKd was 8.30 in [16] (setting [34]) and 5.74 in test [17] (setting [34]).
For FTNMEAQLI, the negative-log Kd (pKd) in test [7] (setting [32]) was 5.67.
In test [5] (setting [35]), FVRLDRPHT showed a pIC50 of at most 4.00.
As to GTHYQNHGF, the pKd in [3] (setting [27]) is 8.22.
Regarding HTQTAGPWHL, the negative-log Kd (pKd) in test [7] (setting [32]) was at most 4.15.
HWVEITALI: the pKd is 6.50 in [9] (setting [36]) and 7.00 in test [10] (setting [36]).
Regarding IAGFIENGW, the pKd in [18] (source organism: Influenza A virus (A/Sichuan/2/1987(H3N2))) was 6.84.
Consider IFISANNQW, for which the pKd in [18] (source organism: Vibrio vulnificus) was 7.64.
For IGKMLESTY, in test [19] (setting [36]), the pKd is 7.73.
ITNTIAGVA: in test [5] (setting [31]), the pIC50 was 4.70.
As for IWGRKSWPL, in test [9] (setting [33]), the pKd was 7.03.
With KAADVTWEEE, the pKd in test [3] (setting [37]) was at most 4.48.
Consider KAFSMPLGV, for which the pIC50 in test [5] (setting [35]) was 5.04.
As for KLSDGVAVL, the pIC50 in test [5] (source organism: Homo sapiens) is 5.19.
Consider KMFESTYRG, for which, in [3] (setting [38]), the pKd was 6.04.
As for KNEHKSTWHY, in [19] (setting [33]), the pKd was 6.35.
On to KSLKKVYTF, for which, in [3] (setting [27]), the pKd was 9.31.
For LFSGVSWIM, in test [9] (setting [37]), the pKd is 6.85.
LIPLWMAGL had a pKd in test [12] (source organism: Vibrio vulnificus CMCP6) of 5.05.
Take LLAALFHDI: the pKd in [18] (setting [39]) is 5.71; in [20] (setting [39]) it was 5.61; in test [16] (setting [39]), 7.07; in test [17] (setting [39]), 5.71.
For the sequence LLHDIGKPV, the pKd was 4.94 in test [21] (setting [29]) and at most 4.70 in test [17] (setting [29]).
The sequence LLLGGTSEI gave a pKd in [17] (setting [29]) of 6.07.
LLMYNLLTI: the pKd in [3] (setting [28]) was 7.14.
In turn, LLPFGQLSI had a pKd in test [4] (source organism: Escherichia coli O139:H28 str. E24377A) of 6.83.
In [4] (setting [27]), LLVNEFYI showed a pKd of 7.23.
LQLNETIYT showed a pIC50 in test [5] (setting [31]) of 5.57.
With LTGYGTVTM, in test [3] (setting [32]), the pKd was 4.81.
As for MLMRVAVGI, in test [3] (setting [27]), the pKd was 9.16.
In turn, MTRGILGSY showed a pKd in test [22] (setting [40]) of 5.15.
Sequence NITTAVKTV had a pIC50 in [5] (setting [35]) of 4.64.
For the sequence NSTSTWVTY, the negative logarithm of the Kd (pKd) in [19] (setting [32]) was 5.76; in [7] (setting [32]), 5.14.
As to PITAAAWYLW, the pKd in test [3] (setting [32]) is 5.77.
In the case of QYIYMGEPL, in [10] (setting [32]), the pKd was 6.69.
Consider RGDLPVWLAY, for which the pKd in test [19] (setting [32]) was 8.16.
Sequence RLGADLDAV showed a pIC50 in test [5] (setting [27]) of 5.11.
In turn, RMIGGIGRFYI gave a pKd in test [4] (source organism: Influenza A virus (A/swine/Italy/2/1979(H1N1))) of 9.52.
In the case of RMLINRFTM, the pKd in [3] (setting [32]) is 7.02.
Sequence RPVSPGKDI gave a pKd in test [21] (source organism: Homo sapiens) of 7.34.
SGCVVSWKNK: the pKd in test [3] (setting [32]) is 5.02.
Take SIIFINYTM: the pKd in test [3] (setting [28]) was 8.19.
On to SIILEFFLM, for which, in test [11] (setting [33]), the pKd was 5.38.
Regarding SLFGQRIEV, the pKd in test [4] (setting [40]) is 9.05. The sequence further had a pIC50 in test [5] (setting [41]) of 6.69.
SLTSINVQA: in test [5] (setting [41]), the pIC50 was 6.30.
As to SRNSTHEMY, the pKd in test [19] (source organism: Dengue virus 4 Thailand/0348/1991) is 5.74.
For the sequence SSEQTFMYY, the pKd is 5.61 in test [18] (source organism: Homo sapiens); 5.85 in test [20] (source organism: Homo sapiens); 6.58 in [14]; 5.08 in [17] (source organism: Homo sapiens); 7.38 in test [22] (source organism: Homo sapiens); 4.99 in test [15] (source organism: Homo sapiens).
As to TANIFRGSY, the pKd in test [19] (setting [36]) was 8.17.
Take TDNVHTWTEQ: the pKd in test [3] (setting [32]) is at most 4.42.
In the case of TGCAVSWSGK, in [3] (setting [36]), the pKd is 5.07.
Turning to TPRKKNYHF, the pKd in test [4] (source organism: Vibrio parahaemolyticus K5030) is at most 4.70.
For the sequence TVIEELEKL, the pKd in test [11] (setting [36]) is 6.30.
For TVMDVISRR, the pKd in test [23] was 8.10; in test [11] (setting [33]) it was 5.63; in test [24], at most 4.41; in [6] (setting [33]), 7.52; in test [25], 8.15.
In the case of TWAQNIPTAI, the negative logarithm of the Kd (pKd) in [9] (setting [30]) was 6.17.
Consider TYLHGIFDR, for which the pKd was 7.77 in [26] and at most 4.70 in [15] (source organism: Vibrio cholerae).
On to VATDVPSAT, for which the pIC50 in test [5] (setting [31]) is at most 3.80.
With VDNVHTWTEQ, in [3] (setting [38]), the pKd was at most 4.47.
VKRLEELLP showed a pIC50 in test [5] (setting [31]) of at most 3.43.
In the case of VLRGRHDAA, the values for the negative-log Kd (pKd) in [16] (setting [42]) and in [17] (setting [42]) were 5.03 and at most 4.70, respectively.
In turn, VMAPDKPSL showed a pKd in test [17] (source organism: Yellow fever virus) of at most 4.70.
On to VQHPELTGL, for which, in test [1] (source organism: Influenza A virus), the pKd was 6.86.
For VTYELRYTL, in test [3] (setting [28]), the pKd was 7.92.
For the sequence VVQHENLKY, the pKd in test [19] (setting [37]) was 6.58; in [7] (setting [37]) it was 5.62.
Consider YLVVVGAVGV, for which the pKd in [4] (source organism: unidentified) was 8.00.
Regarding YWISNGTGNI, the pKd in test [10] (setting [30]) is 6.78.
